Assay results published in the DeepSol protein solubility set.

Assay: soluble on expression in E. coli; label from the status in PepcDB or PDB records

Sequence	soluble on expression in E. coli
MSLRIDHSGSCVWLKMQKPRFSFAVLLPSETMRRQFTRNTSNMKTELTLLEQTLTLHRFPKRNNETLQAWDAGDEYLIQHVEQLALPESSHIVIINDHFGTLSCWFSQKHKVSMMSDSYIAHQATQANLQQNQRPPVQLLTTLDPVPNDASVVLLQLPKSNRHLVWILSQLRKALSPNIPIIAVNKAKEIHTSTLNLFEKHLGPTTTSLAWKKHRLVFSSATVNPANEVNPECGWSIEPYAITLTNLPNVYSGESLDLGSRFILEHLPADPTLEDFIDLGCGNGVLSVRLGQLNPQAKITCVDESFMAIASAQKNLHDNLGKRDIHCIANNCLDGFPAHSSSMIVCNPPFHQQQTITDHIAWQMFCDSKHVLKKGGKLWVIGNRHLGYDVKLARLFGKSHVRVIANNSKFVILQAIKSEGHHHHHH	not soluble
MSLRIEYNYRYYLTENEYKQYHIQLKGFIKKYVATKLADVGEVIHFAQAQQRQGRYVSLYLSYEAAKYFNHVMCTHSLAKDDIYAVAYSFEKAESINSTYEHQTSYVSKHHFSFVESSEVMMTNIKRVQQAIVEGETYQVNYTARLTDNIYYPISTLYERLTQFSNGNYTALLQTDEIQVASISPELFFQKGQFNNVDNVIISKPMKGTMPRGKTEAEDQQYYKTLQTSSKDRAENVMIVDLLRNDIGRISQSGSIKVYKLFFIEAYKTVFQMTSMVSGTLKTNTDLTQILTSLFPCGSITGAPKLNTMKYIKQFESSPRGIYCGAIGLLLPTEDDKMIFNIPIRTIEYKYGQAIYGVGAGITIDSKPKDEVNEFYAKTKILEMLEGHHHHHH	soluble
MSLRITEGSAVIEVPEAYSGPGRRSPGFYNADQVLNRDLTIDLINEFGVEKVLDGFGGSGVRGIRISLETKAKVVIAEISPSSCEIIKQNIAINNAEADLIHDNFQCVSSHIAFDYIDVDPYGSPVPYLDAAIMNVRKGGYLGITATDQSTLTGSTLNKTRRRYGAYIVNDIYRHEMGIRTLIGYIARRAAAFDRYIEPQLSIWNHHYYRVFVKVGKGVNGADKMIENIGYLNKHTTIDNSFKDVNEGPVWLSNLNNAELLEKIRDPRVSKKIEMIKHDNRLLFVDLTDIARKTSLSLPPLAKVMDEIMKHGYEAHRTSFSPTGIKTDCPYAEVSEILKAYAKREGHHHHHH	soluble
MSLRITGPYQSFARYETALLGFLSHASGMATAALAARRAAPDSHLLSFGARHVHPSIAAVVERAALIGGFDGFSHVAAGDVLDREPGGTMPHALVICFGRGNQEAAWRAFTDGVGDDVPRIALCDTYSDEKDEVLRAVDELGDDLDAVRLDTTSSRRGDFRHIAREVQWALDAGGNSDVSVFVSGGLTPTDLRGLRDVVDGFGVGGFVSNATPVDFGLDIVEVAGEPAAKRGKLSGTKAVYRTPDGGHHVALASQPAPADATALLEPLLVDGTVSMAFDIDDAAARARQDARAVSFRQEGHHHHHH	soluble
MSLRLALFDLDNTLLGGDSDHAWGDYLCERGFLDAVAYKTRNDEFYQDYLAGKLDNAAYLNFCLEILGRTDMVVLEEWHRDFMRDCIEPILLPKAQALLDKHRAAGDKLVIITATNRFVTAPIAERLGVETLIATECEMQDGRYTGRSTDVPCFREGKVTRLNRWLEETGHSLEDSYFYSDSMNDLPLLEQVTTAVAVDPDPNLRAEAEKRGWQVISLRDEGHHHHHH	soluble
MSLRLDKFIAENVGLTRSQATKAIRQSAVKINGEIVKSGSVQISQEDEIYFEDELLTWIEEGQYFMLNKPQGCVCSNDDGDYPTIYQFFDYPLAGKLHSAGRLDVDTTGLVLLTDDGQWSHRITSPKHHCEKTYLVTLADPVEENYSAACAEGILLRGEKEPTKPAKLEILDDYNVNLTISEGRYHQVKRMFAALGNKVVGLHRWKIGDVVLDESLEEGEYRPLTQSEIEKLVEGGSHHHHHH	soluble
MSLRLSLLSSTSKYKVTVAEVQRRLSPPECLNASLLGGVLRRAKSKNGGRSLREKLDKIGLNLPAGRRKAAHVTLLTSLVEGEAVHLARDFAYVCEAEFPSKPVAEYLTRPHLGGRNEMAARKNMLLAAQQLCKEFTELLSQDRTPHGTSRLAPVLETNIQNCLSHFSLITHGFGSQAICAAVSALQNYIKEALIVIDKSYMNPGDQSPADSNKTLEKMEKHREGHHHHHH	not soluble
MSLRRIGITQRLLETREYIETREALDVRWGELFYHLSWGMIPLSYAVPLEVYIKEFALEGVILSGGNDLNDFVSSPLNKKRDAYEKEILRYAKQYAFPLLGVCRGAQMIAYEGGSLLEFCEGHVGRHEIFWEEGEGEIIGSEHQLAIKELGAGLIPLARSCEGLVEAFRGEEAPLFGMMWHPERQDKRSAGTLKMVELFSQALQKREGHHHHHH	soluble
MSLRSQQSGILGVIVADIRNPYFTALIRAVEEVAYRAGMRVTLCNTDEDPEREALYLELMQEERITGLIFAPTRVTVGRMHELALDYPTVLVDRAGPGSRYDSVVLDNGAAMAELVAHLQAQGYRRIGGLFGSTSTTAAERRDGYLAAMRAQGLQPDYREVAPTAEAAIAELGAWLANDQRPEAIVTSNSLLLMGALKAARTAGLRLPQDLALAGFDNERWTDLVEPGITVVEQPVEDMGRAAMSLLLERLSNRQLPIRRLVMTGRCVVRGSTAEGHHHHHH	soluble
MSLRVIDGGVTAPKGFKANGYKEGKFGVAIIISEKDAVGAGTFTTNKVVAHPVVLSRELIKNRDKFRAIVANSGNANCFTKDGMEDAKEMQRLVAELFNINEDEVLVASTGVIGRKMDMNIIKDRINKVYNLIKEGNSSINAAKAIMTTDTKPKEIAVEFEVNGKTVRVGGIAKGAGMIAPNMLHATMLCFITTDIEIDKESLTNILQKVVDKTFNNISVDGDTSTNDTVFVLANGLSGVNYEECGEEFENALLYVCRELAKMIVKDGEGATKFMEVVVKGAKTEEDAVKASKAIVNSLLVKTAVFGGDPNWGRIVAAVGYSGADFNPEVVDVILSNYKDEVYLVKDGIPLADEGTEELKKAEEIMKSDEIKIVVDLKMGEFENVCYGCDLSYEYVRINAEYTTEGHHHHHH	soluble
MSLRVKTMVFTPFISMVGVTGSMGPFFCEFTLNGDLLPINYPATYTHELAHLLGISSEAEANFYAYQVCTRSQIKGIRFSGYFSILNHVLGNARRLLSEKEYADIINRIRPEIIELAKKNQEYWMAKYSPLIGDVQNWIYDLYLKGNKIESGRKNYSEVIGLLISYQVWKAKTASDEGHHHHHH	not soluble
MSLRYPMSKLAYHRVLLKLSGEALMGSADYGIDPKVINRLAGEVIEAQNAGAELALVIGGGNIFRGAGLAAKGMDRVTGDHMGMLATIINALAMQDALEKLGTKVRVMSAIKINNVCEDFIRRRAIRHLEKSRITIFAAGTGNPFFTTDSGAALRAIEIGADLLLKATKVDGIYNKDPQKHCDAVKYSTLSYDEVISQNLEVMDTAAFALARDSNLPLRIFDIEQPGVLLRILHGEEIGTLVKERNSKSEGHHHHHH	not soluble
MSLSADFSQPLADRLRPRTLDEYIGQLHLIEPGRPLYESIRRGRLHSMIFWGPPGTGKTTLARLVARHADAEFLPVSAVLSGVKEIREALARAVQFKAAGRRAILFVDEVHRFNKSQQDAFLAHVEDGTVSFIGATTENPSFEVNSALLSRARVYVLKALTEADLLGVIDRALSDAERGLGGRGLNMSDPVRMAYVRAADGDARRLLNLLEITADLLDAGQTVVSEEVARQVLASGTTRRFDKQGEEFYNQISALHKSVRGSSPDAALYWLCRMLDGGCDPLYLARRLVRIASEDIGNADPKALELCLNAWNAQERLGSPEGELALAQAVVYLAVAPKSNAVYEAYKAARADAARSGSLPVPLHLRNAPTGLMKGLDYGKGYRYAHDYPDAYVPGENYFPEGLERREYYRPVNRGMEIKIAEKLERLKALDKEADEGHHHHHH	not soluble
MSLSAFLPSLDTPVALLDMPRMQRNIQRMQQRMNELGVRLRPHVKTSKSLPVIQAQMAAGARGVTVSTLKEAEHCFAEGISDVFYAVAIAPGKLDQALKLRRIGCRLSILTDSVVAAQAIVAFGQQHDEQFQVWIEIDCDGHRSGLTVEDNALIEVARTLVEGGMQLRGVMTHAGSSYDLDTPEALQALAEQERLLCVSAAERIRQAGLPCPEVSIGSTPTALSAQGLAGVTEVRAGVYVFFDLVMHNIGVCGADEGHHHHHH	not soluble
MSLSARSSASSWSEEPVQSNMDISTGHMILSYMEDHLKNKNRLEKEWEALCAYQAEPNSSFVAQREENVPKNRSLAVLTYDHSRVLLKAENSHSHSDYINASPIMDHDPRNPAYIATQGPLPATVADFWQMVWESGCVVIVMLTPLAENGVRQCYHYWPDEGSNLYHIYEVNLVSEHIWCEDFLVRSFYLKNLQTNETRTVTQFHFLSWYDRGVPSSSRSLLDFRRKVNKCYRGRSCPIIVHCSDGAGRSGTYVLIDMVLNKMAKGAKEIDIAATLEHLRDQRPGMVQTKEQFEFALTAVAEEVNAILKALPQEGHHHHHH	soluble
MSLSASTHDLVIIGAGPAGMSAALTAASLGMKTLLLDEQLRPGGQIYRNITAVPPSVAALLGPDYRHGEGLAARLGRSGVELRFGAMVWDVARDLTVTAQQDGQSFQVRAPQLIAATGAMERASPIPGWTLPGVLNAGAAQIALKSASAVPSGRVVLAGSGPLLLLVACQLLDAGVSLAGIVETSPSTNRWRALRHLPAALGAHAYLAKGLRMLWRLRRAGVPMFAAATSLRVEGGERVQALAFKADRIDHLLHADVVLLHHGVVPNTQLSRLLRVDHDWDLVQLAWRPQVNAWGETSLAGFRVAGDGAAIAGAQAAEPNGTLAALGAAQALGRLDVTECEQRAASARGTLKRQLRIRPFLDALYRPPEWLSDPTDETVVCRCEEVTAGRVREMARLGCQGPNQTKFFSRCGMGPCQGRVCGLTVTQILSTELGRPPSEVGAYHIRSPLKPVPLASIAALADTATIENSEPMETTEGHHHHHH	not soluble
MSLSDAAAVTVVEQTEKRHKLIGYWHNFVNGAGCPIRLADMADAWDVIDIAFAENDRNSDGTVHFNLYSGDIYSDCPALDPTQFKQDMAALQAKGKKFVLSLGGAEGTITLNTDQDEANFVSSLTGLIAEWGFDGLDVDLESGSNLVHGSQIQARLGRALLQIEQNMGGDMYLTMAPEHPYVQGGYVAYSGIWGAYIPVINDTRSTLDLLHVQLYNNGGLPNPYLPSSAPEGSVDMMVAQSKMLIEGFELADGTQFAPLRDDQVAIGLPSGPSSANSGQAPTQNILNALDCLTKGTSCGTVKPAFNYPNYAGVMTWSINWDQHDGFNFSKPVGDKLTQMNAEGHHHHHH	soluble
MSLSDDRLSLQTFLTRVTAVRLKLQQVVTAPDPEAMIQVLAQTVFQGKGADLTDIQAYGNLIAASLGADWGPAANTLFVRPLDQAWQQILLPSSAGLNRAWQRAIVDEWQGAFSGRYPFAATSSDASLPMLGQMIRADSGRIEQFLAQQLMGLLRKEGSRWVADSRQSQGLRFNPDFLTAINQLSQLADVLYTDGGMGVSFELQGKPVRDVVQTTFVLNGEKHHYFNQRESWQRFRWPGQGDHPGISEGHHHHHH	soluble
MSLSDDSTFGDATFVVLDFETTGLDPQVDEIIEIGAVKIQGGQIVDEYHTLIKPSREISRKSSEITGITQEMLENKRSIEEVLPEFLGFLEDSIIVAHNANFDYRFLRLWIKKVMGLDWERPYIDTLALAKSLLKLRSYSLDSVVEKLGLGPFRHHRALDDARVTAQVFLRFVEMMKKEGHHHHHH	soluble
MSLSDNITIKDVRTYSVSAEGGGDYHLQEKGHWITDTYISNPMSMYPDYKKTRTSWGIGVLGSVVVEIELSNGIVGVATGLGGEPACWLIQHHFKRFLINQSPKNLNLIWDQMFKASMFYGRKGITICAISVVDLALWDSLGILRDEPVWQMIGGKVRDEIHFYCTGPLPVETRKMGFWGSKVPLPFGPGDGHEGLEKNYEYLKKHRDSVPEKFPLMVDCYMSLNVQYAIQLAKRCEDLNINWWEEVLHPDDIDGYKQIKLAHPDKKWTTGEHEYTRYGFRQLIETRSIDILQPDVMWVGGMTELLKISAMAAAYDLPVVPHGSGPYSSHFIFSQPHSPFCEYIAGSPDGKKVIKMFPYFDGEQLPENGKIKPSYDPGFGMKIANKDTLIEIKQNEGHHHHHH	soluble
